Reference: US20240321457A1 (University of California, published 2024)
Each block holds one binder with its values, some of them ahead of it.

Legend:
AKT3 E17K mutant = AKT3 E17K mutant (human, UniProt Q9Y243 1-479); assay: AP-MS, 3xFLAG bait, breast cell lines
AKT1 E17K mutant = AKT1 E17K mutant (human, UniProt P31749 1-480); assay: AP-MS, 3xFLAG bait, breast cell lines
UBE2N [1] = molecular target: T1, UBE2N (human, UniProt P61088 1-152); assay: AP-MS, PPI score from compPASS and SAINTexpress, MDA-MB-231 cells
T1 construct: endogenous prey from cell lysate; also called UBC13
T1 sequence (looked up): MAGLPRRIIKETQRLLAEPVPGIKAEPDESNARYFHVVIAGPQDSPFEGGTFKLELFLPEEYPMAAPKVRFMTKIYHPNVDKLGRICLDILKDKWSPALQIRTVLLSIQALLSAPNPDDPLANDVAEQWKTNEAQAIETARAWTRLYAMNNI
Method: For AP-MS experiments, samples were resuspended in 15 μL of MS loading buffer (4% formic acid, 2% acetonitrile) and 2 μL were separated by a reversed-phase gradient over a nanoflow 75 μm ID×25 cm long picotip column packed with 1.9 μM C18 particles (Dr. Maisch). Peptides were directly injected over the course of a 75 min acquisition into a Q-Exactive Plus mass spectrometer (Thermo), or over the course of a 90 min acquisition into a Orbitrap Elite mass spectrometer. […] Peptides and proteins were filtered to 1% false discovery rate in MaxQuant, and identified proteins were then subjected to protein-protein interaction scoring.
All PPI scoring was performed separately for each cell line. For SAINTexpress, control samples in which bait protein was not induced by addition of doxycycline were used. For CompPASS, a stats table representing all WT baits was used. After scoring, the CompPASS WD and Z-score were normalized within a given bait for each cell line. The total list of candidate PPIs was filtered to those that met the following criteria: SAINTexpress BFDR=<0.05, WD percentile by bait>=0.95, and Z-score percentile by bait≤=0.95. PPIs passing all 3 of these criteria were considered to be high-confidence PPIs. To enable visualization and analysis of PPIs by confidence score among these 3 criteria, a PPI score was calculated: [(WD percentile by bait+Z-score percentile by bait)/2)+(1−BFDR)]/2.

UBE2N [2] = molecular target: T1, UBE2N; assay: quantitative AP-MS, prey abundance normalised to bait, MDA-MB-231 cells
BRCA1 S1655F = molecular target: T2, BRCA1 S1655F (human, UniProt P38398 1-1863); assay: AP-MS, MSstats WT vs mutant, MDA-MB-231 cells
T2 construct: 3xFLAG-tagged bait; also called BRCT domain mutant S1655F; 51655F

BRCA1 5382insC = molecular target: T3, BRCA1 5382insC (human, UniProt P38398 1-1755, limits assumed); assay: AP-MS, MSstats WT vs mutant, MDA-MB-231 cells
T3 construct: 3xFLAG-tagged bait; also called 5832insC

BRCA1 M1775R = molecular target: T4, BRCA1 M1775R (human, UniProt P38398 1-1863); assay: AP-MS, MSstats WT vs mutant, MDA-MB-231 cells
T4 construct: 3xFLAG-tagged bait; also called BRCT domain mutant M1775R

Sequence of AKT1 E17K mutant (P31749 whole entry E17K): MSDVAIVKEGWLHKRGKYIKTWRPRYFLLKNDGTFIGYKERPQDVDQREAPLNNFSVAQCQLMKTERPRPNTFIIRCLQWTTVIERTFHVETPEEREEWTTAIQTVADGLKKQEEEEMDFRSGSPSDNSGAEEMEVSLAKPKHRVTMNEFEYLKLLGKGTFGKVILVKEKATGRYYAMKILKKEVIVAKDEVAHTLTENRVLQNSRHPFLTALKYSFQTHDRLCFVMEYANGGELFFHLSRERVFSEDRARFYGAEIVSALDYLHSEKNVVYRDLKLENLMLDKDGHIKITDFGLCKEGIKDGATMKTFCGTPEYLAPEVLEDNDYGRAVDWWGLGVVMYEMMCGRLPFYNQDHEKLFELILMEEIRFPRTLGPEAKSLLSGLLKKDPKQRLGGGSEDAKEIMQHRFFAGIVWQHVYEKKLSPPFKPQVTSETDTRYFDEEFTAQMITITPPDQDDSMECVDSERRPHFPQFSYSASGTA
Sequence of AKT3 E17K mutant (Q9Y243 whole entry E17K): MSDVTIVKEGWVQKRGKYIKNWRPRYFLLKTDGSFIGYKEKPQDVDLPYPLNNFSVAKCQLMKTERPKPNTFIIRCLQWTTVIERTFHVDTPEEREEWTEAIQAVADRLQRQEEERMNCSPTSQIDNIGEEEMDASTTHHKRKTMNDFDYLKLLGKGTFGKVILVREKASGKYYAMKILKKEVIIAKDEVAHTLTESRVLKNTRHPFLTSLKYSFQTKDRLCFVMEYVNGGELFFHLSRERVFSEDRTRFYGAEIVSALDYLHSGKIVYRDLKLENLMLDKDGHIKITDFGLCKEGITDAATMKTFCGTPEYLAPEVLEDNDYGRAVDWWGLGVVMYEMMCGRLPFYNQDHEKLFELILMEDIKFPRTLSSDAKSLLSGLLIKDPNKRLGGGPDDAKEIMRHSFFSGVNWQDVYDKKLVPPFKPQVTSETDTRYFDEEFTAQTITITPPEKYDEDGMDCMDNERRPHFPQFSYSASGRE

- binding result (AKT3 E17K mutant): no binding
B1: S100 Calcium Binding Protein A3 (other, human, UniProt P33764 2-101, looked up)
chain: ARPLEQAVAAIVCTFQEYAGRCGDKYKLCQAELKELLQKELATWTPTEFRECDYNKFMSVLDTNKDCEVDFVEYVRSLACLCLYCHEYFKDCPSEPPCSQ
notes: endogenous prey from cell lysate; also called S100A3

- binding result (AKT3 E17K mutant): no binding
B2: keratin KRT32 (other, human, UniProt Q14532 1-448, looked up)
chain: MTSSCCVTNNLQASLKSCPRPASVCSSGVNCRPELCLGYVCQPMACLPSVCLPTTFRPASCLSKTYLSSSCQAASGISGSMGPGSWYSEGAFNGNEKETMQFLNDRLASYLTRVRQLEQENAELESRIQEASHSQVLTMTPDYQSHFRTIEELQQKILCTKAENARMVVNIDNAKLAADDFRAKYEAELAMRQLVEADINGLRRILDDLTLCKADLEAQVESLKEELMCLKKNHEEEVGSLRCQLGDRLNIEVDAAPPVDLTRVLEEMRCQYEAMVEANRRDVEEWFNMQMEELNQQVATSSEQLQNYQSDIIDLRRTVNTLEIELQAQHSLRDSLENTLTESEARYSSQLAQMQCMITNVEAQLAEIRADLERQNQEYQVLLDVRARLEGEINTYRSLLENEDCKLPCNPCSTPSCTTCVPSPCVPRTVCVPRTVGMPCSPCPQGRY
notes: endogenous prey from cell lysate

- binding result (AKT1 E17K mutant): no binding
B3: CSTB (other, human, UniProt P04080 1-98, looked up)
chain: MMCGAPSATQPATAETQHIADQVRSQLEEKENKKFPVFKAVSFKSQVVAGTNYFIKVHVGDEDFVHLRVFQSLPHENKPLTLSNYQTNKAKHDELTYF
notes: as for B2

- binding result (AKT1 E17K mutant): no binding
B4: SPRR3 (other, human, UniProt Q9UBC9 2-169, looked up)
chain: SSYQQKQTFTPPPQLQQQQVKQPSQPPPQEIFVPTTKEPCHSKVPQPGNTKIPEPGCTKVPEPGCTKVPEPGCTKVPEPGCTKVPEPGCTKVPEPGCTKVPEPGYTKVPEPGSIKVPDQGFIKFPEPGAIKVPEQGYTKVPVPGYTKLPEPCPSTVTPGPAQQKTKQK
notes: as for B2

- PPI score (UBE2N [1]): < 0.6
- fold reduction of associated prey compared to WT (UBE2N [2]): 6 fold
B5: BRCA1 I26A (enzyme, human, UniProt P38398 1-1863, looked up)
chain: MDLSALRVEEVQNVINAMQKILECPACLELIKEPVSTKCDHIFCKFCMLKLLNQKKGPSQCPLCKNDITKRSLQESTRFSQLVEELLKIICAFQLDTGLEYANSYNFAKKENNSPEHLKDEVSIIQSMGYRNRAKRLLQSEPENPSLQETSLSVQLSNLGTVRTLRTKQRIQPQKTSVYIELGSDSSEDTVNKATYCSVGDQELLQITPQGTRDEISLDSAKKAACEFSETDVTNTEHHQPSNNDLNTTEKRAAERHPEKYQGSSVSNLHVEPCGTNTHASSLQHENSSLLLTKDRMNVEKAEFCNKSKQPGLARSQHNRWAGSKETCNDRRTPSTEKKVDLNADPLCERKEWNKQKLPCSENPRDTEDVPWITLNSSIQKVNEWFSRSDELLGSDDSHDGESESNAKVADVLDVLNEVDEYSGSSEKIDLLASDPHEALICKSERVHSKSVESNIEDKIFGKTYRKKASLPNLSHVTENLIIGAFVTEPQIIQERPLTNKLKRKRRPTSGLHPEDFIKKADLAVQKTPEMINQGTNQTEQNGQVMNITNSGHENKTKGDSIQNEKNPNPIESLEKESAFKTKAEPISSSISNMELELNIHNSKAPKKNRLRRKSSTRHIHALELVVSRNLSPPNCTELQIDSCSSSEEIKKKKYNQMPVRHSRNLQLMEGKEPATGAKKSNKPNEQTSKRHDSDTFPELKLTNAPGSFTKCSNTSELKEFVNPSLPREEKEEKLETVKVSNNAEDPKDLMLSGERVLQTERSVESSSISLVPGTDYGTQESISLLEVSTLGKAKTEPNKCVSQCAAFENPKGLIHGCSKDNRNDTEGFKYPLGHEVNHSRETSIEMEESELDAQYLQNTFKVSKRQSFAPFSNPGNAEEECATFSAHSGSLKKQSPKVTFECEQKEENQGKNESNIKPVQTVNITAGFPVVGQKDKPVDNAKCSIKGGSRFCLSSQFRGNETGLITPNKHGLLQNPYRIPPLFPIKSFVKTKCKKNLLEENFEEHSMSPEREMGNENIPSTVSTISRNNIRENVFKEASSSNINEVGSSTNEVGSSINEIGSSDENIQAELGRNRGPKLNAMLRLGVLQPEVYKQSLPGSNCKHPEIKKQEYEEVVQTVNTDFSPYLISDNLEQPMGSSHASQVCSETPDDLLDDGEIKEDTSFAENDIKESSAVFSKSVQKGELSRSPSPFTHTHLAQGYRRGAKKLESSEENLSSEDEELPCFQHLLFGKVNNIPSQSTRHSTVATECLSKNTEENLLSLKNSLNDCSNQVILAKASQEHHLSEETKCSASLFSSQCSELEDLTANTNTQDPFLIGSSKQMRHQSESQGVGLSDKELVSDDEERGTGLEENNQEEQSMDSNLGEAASGCESETSVSEDCSGLSSQSDILTTQQRDTMQHNLIKLQQEMAELEAVLEQHGSQPSNSYPSIISDSSALEDLRNPEQSTSEKAVLTSQKSSEYPISQNPEGLSADKFEVSADSSTSKNKEPGVERSSPSKCPSLDDRWYMHSCSGSLQNRNYPSQEELIKVVDVEEQQLEESGPHDLTETSYLPRQDLEGTPYLESGISLFSDDPESDPSEDRAPESARVGNIPSSTSALKVPQLKVAESAQSPAAAHTTDTAGYNAMEESVSREKPELTASTERVNKRMSMVVSGLTPEEFMLVYKFARKHHITLTNLITEETTHVVMKTDAEFVCERTLKYFLGIAGGKWVVSYFWVTQSIKERKMLNEHDFEVRGDVVNGRNHQGPKRARESQDRKIFRGLEICCYGPFTNMPTDQLEWMVQLCGASVVKELSSFTLGTGVHPIVVVQPDAWTEDNGFHAIGQMCEAPVVTREWVLDSVALYQCQELDTYLIPQIPHSHY
notes: 3xFLAG-tagged bait; printed I16A in the embodiments; also called RING domain mutant I26A

- binding result (BRCA1 S1655F): no binding
- binding result (BRCA1 5382insC): no binding
- binding result (BRCA1 M1775R): no binding
B6: RBBP8 (other, human, UniProt Q99708 1-897, looked up)
chain: MNISGSSCGSPNSADTSSDFKDLWTKLKECHDREVQGLQVKVTKLKQERILDAQRLEEFFTKNQQLREQQKVLHETIKVLEDRLRAGLCDRCAVTEEHMRKKQQEFENIRQQNLKLITELMNERNTLQEENKKLSEQLQQKIENDQQHQAAELECEEDVIPDSPITAFSFSGVNRLRRKENPHVRYIEQTHTKLEHSVCANEMRKVSKSSTHPQHNPNENEILVADTYDQSQSPMAKAHGTSSYTPDKSSFNLATVVAETLGLGVQEESETQGPMSPLGDELYHCLEGNHKKQPFEESTRNTEDSLRFSDSTSKTPPQEELPTRVSSPVFGATSSIKSGLDLNTSLSPSLLQPGKKKHLKTLPFSNTCISRLEKTRSKSEDSALFTHHSLGSEVNKIIIQSSNKQILINKNISESLGEQNRTEYGKDSNTDKHLEPLKSLGGRTSKRKKTEEESEHEVSCPQASFDKENAFPFPMDNQFSMNGDCVMDKPLDLSDRFSAIQRQEKSQGSETSKNKFRQVTLYEALKTIPKGFSSSRKASDGNCTLPKDSPGEPCSQECIILQPLNKCSPDNKPSLQIKEENAVFKIPLRPRESLETENVLDDIKSAGSHEPIKIQTRSDHGGCELASVLQLNPCRTGKIKSLQNNQDVSFENIQWSIDPGADLSQYKMDVTVIDTKDGSQSKLGGETVDMDCTLVSETVLLKMKKQEQKGEKSSNEERKMNDSLEDMFDRTTHEEYESCLADSFSQAADEEEELSTATKKLHTHGDKQDKVKQKAFVEPYFKGDERETSLQNFPHIEVVRKKEERRKLLGHTCKECEIYYADMPAEEREKKLASCSRHRFRYIPPNTPENFWEVGFPSTQTCMERGYIKEDLDPCPRPKRRQPYNAIFSPKGKEQKT
notes: as for B2

- binding result (BRCA1 S1655F): no binding
- binding result (BRCA1 5382insC): no binding
- binding result (BRCA1 M1775R): no binding
B7: BRIP1 (enzyme, human, UniProt Q9BX63 1-1249, looked up)
chain: MSSMWSEYTIGGVKIYFPYKAYPSQLAMMNSILRGLNSKQHCLLESPTGSGKSLALLCSALAWQQSLSGKPADEGVSEKAEVQLSCCCACHSKDFTNNDMNQGTSRHFNYPSTPPSERNGTSSTCQDSPEKTTLAAKLSAKKQASIYRDENDDFQVEKKRIRPLETTQQIRKRHCFGTEVHNLDAKVDSGKTVKLNSPLEKINSFSPQKPPGHCSRCCCSTKQGNSQESSNTIKKDHTGKSKIPKIYFGTRTHKQIAQITRELRRTAYSGVPMTILSSRDHTCVHPEVVGNFNRNEKCMELLDGKNGKSCYFYHGVHKISDQHTLQTFQGMCKAWDIEELVSLGKKLKACPYYTARELIQDADIIFCPYNYLLDAQIRESMDLNLKEQVVILDEAHNIEDCARESASYSVTEVQLRFARDELDSMVNNNIRKKDHEPLRAVCCSLINWLEANAEYLVERDYESACKIWSGNEMLLTLHKMGITTATFPILQGHFSAVLQKEEKISPIYGKEEAREVPVISASTQIMLKGLFMVLDYLFRQNSRFADDYKIAIQQTYSWTNQIDISDKNGLLVLPKNKKRSRQKTAVHVLNFWCLNPAVAFSDINGKVQTIVLTSGTLSPMKSFSSELGVTFTIQLEANHIIKNSQVWVGTIGSGPKGRNLCATFQNTETFEFQDEVGALLLSVCQTVSQGILCFLPSYKLLEKLKERWLSTGLWHNLELVKTVIVEPQGGEKTNFDELLQVYYDAIKYKGEKDGALLVAVCRGKVSEGLDFSDDNARAVITIGIPFPNVKDLQVELKRQYNDHHSKLRGLLPGRQWYEIQAYRALNQALGRCIRHRNDWGALILVDDRFRNNPSRYISGLSKWVRQQIQHHSTFESALESLAEFSKKHQKVLNVSIKDRTNIQDNESTLEVTSLKYSTSPYLLEAASHLSPENFVEDEAKICVQELQCPKIITKNSPLPSSIISRKEKNDPVFLEEAGKAEKIVISRSTSPTFNKQTKRVSWSSFNSLGQYFTGKIPKATPELGSSENSASSPPRFKTEKMESKTVLPFTDKCESSNLTVNTSFGSCPQSETIISSLKIDATLTRKNHSEHPLCSEEALDPDIELSLVSEEDKQSTSNRDFETEAEDESIYFTPELYDPEDTDEEKNDLAETDRGNRLANNSDCILAKDLFEIRTIKEVDSAREVKAEDCIDTKLNGILHIEESKIDDIDGNVKTTWINELELGKTHEIEIKNFKPSPSKNKGMFPGFK
notes: as for B2
